Target: oligomeric amyloid-β 1–42 (UniProt P05067)
Experiment: ELISA; solid phase binding assay: 96-well plate coated with 100 nM oAβ1-42 in PBS overnight at 4 °C, blocked with 4% BSA; purified Fc or sTREM2-Fc proteins in PBST with 0.5% BSA, 30 min at 37 °C; detected with biotinylated anti-Fc antibody, avidin-HRP, TMB, read at 620 nm

Kd: 86.5 nM
Substance: soluble TREM2-Fc (human TREM2 extracellular domain, amino acids 1–171, fused to the Fc region of human IgG1) (from UniProt Q9NZC2 19-171) (Fc fusion)

Reference: publication PMC5870375
